Test results as given in patent US20240252641A1 (published 2024).

T1: human CD70, recombinant, N-terminally biotinylated (residues 39-193) (human, UniProt P32970 39-193, N-terminal biotin)
T1 chain: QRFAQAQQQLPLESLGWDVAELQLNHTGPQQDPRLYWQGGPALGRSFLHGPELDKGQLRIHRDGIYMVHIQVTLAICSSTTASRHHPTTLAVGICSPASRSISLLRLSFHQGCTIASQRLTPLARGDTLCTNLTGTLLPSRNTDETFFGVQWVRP


Biological target: T1, human CD70, recombinant, N-terminally …
Test: Octet BLI

| Kd | Binder |
| --- | --- |
| 0.16 nM | R3P3H12 VHH (VHH) VHH: QVQLQESGGGLVQTGGSLRLSCTASGSIFDIVRGSWYRQAPGNQRELVAIITSGGATNYADSVAGRFTISRDSAWKALYLQMNSLKPEDTAVYFCNMESVRYRNYWGQGTQVTVSS |
| 0.025 nM | R3P5A1 VHH (VHH) VHH: QVQLQESGGGLVQPGGSLRLSCTASGSIFSATRMEWYRQAPGKQRELVAIVTSGGRTNYADSVNGRFTISRDNAKNTLYLQMNNLKPEDTAVYYCKFERYDYVNYWGRGTQVTVSS |
| 1.7 nM | human CD27 fused to human Fc domain (Fc fusion) TPAPKSCPERHYWAQGKLCCQMCEPGTFLVKDCDQHRKAAQCDPCIPGVSFSPDHHTRPHCESCRHCNSGLLVRNCTITANAECACRNGWQCRDKECTECDPLPNPSLTARSSQALSPHPQPTHLPYVSEMLEARTAGHMQTLADFRQLPARTLSTHWPPQRSLCSSDFIRI |
| 0.027 nM | R3aP3E8 VHH (VHH) VHH: QVQLQESGGGLVQPGGSLRLSCVASGSIFSIARMNWYRQAPGKQRELVAILNRAGRTDYADSVKGRFTISSDNAKTTVYLQMNSLKPEDTALYYCNLQTISYHDFWGQGTQVTVSS |
| 0.036 nM | R3aP9D10 VHH (VHH) VHH: QVQLQESGGGLVQAGGSLRLSCAAPGFTFDAYAIGWFRQAPGKEREGVICLSPSDGSTYYADSVKGRFTISSDNAKNTVYLQMNSLKPEDTAVYYCATPSWCSLKADFGSWGQGTQVTVSS |

biological target: 41D12 (LwH); test: Octet BLI

| Kd | Binder |
| --- | --- |
| 0.001 nM | CD70 (ligand, N-terminal biotin) QRFAQAQQQLPLESLGWDVAELQLNHTGPQQDPRLYWQGGPALGRSFLHGPELDKGQLRIHRDGIYMVHIQVTLAICSSTTASRHHPTTLAVGICSPASRSISLLRLSFHQGCTIASQRLTPLARGDTLCTNLTGTLLPSRNTDETFFGVQWVRP |

Biological target: T1, human CD70, recombinant, N-terminally …
Test: Octet BLI steady-state

| Kd | Binder |
| --- | --- |
| 56.7 nM | 1-TC4-I-C10 (scFv) scFv: EVQLVQSGAEVKKPGESLKISCKGSGYSFTSYWIGWVRQMPGKGLEWMGIIYPGDSDTRYSPSFQGQVTISADKSISTAYLQWSSLKASDTAMYYCAISRTESYVMDVWGQGTTVTVSSGGSGGSGGSGGSQSALTQPRSVSGSPGQSVTISCTGTSSDVGGYNYVSWYQQHPGKAPKLMIYDVTNRPSGVPDRFSASKSDNTATLTVSGVQAEDEADYYCSSYAGSHELFGGGTKLTVL |
| 41.7 nM | 39-TC6-IV-B08 (scFv) scFv: QVQLVESGGGVVQPGGSLRLSCAASGFTFSSYAMHWVRQAPGKGLEWVAVISYDGSNKYYADSVKGRFTISRDNSKNTLYLQMNSLRAEDTAVYYCARDGHPYYYGMDVWGQGTTVTVSSGGSGGSGGSGGSQSALTQPASVSGSPGQSITISCTGTSSDVGDYNYVSWYQHHPGKAPKLMIYDVSNRPSGVSNRFSGSKSGNTASLTISGLQAEDEADYYCGSYTGSDTWVFGGGTKVTVL |
| 55.7 nM | 50-TC7-III-A11 (scFv) scFv: QVQLVQSGAEVKRPGASVKVSCKASGYTFTSYYMHWVRQAPGQGLEWMGIINPSGGSTSYAQKFQGRVTMTRDTSTSTVYMELSSLRSEDTAVYYCAIEPGYCSGGSCYPDAFDIWGQGTTVTVSSGGSGGSGGSGGSQSVLTQPPSASGTPGQRVTISCSGSSSNIGSDYVYWYQRVPGTAPKLLIYRDNQRPSGVPDRFSGSKSGTSASLAISGLRSDDEADYYCAAWDDSLSGWVFGGGTKVTVL |
